Experimental data reported in article PMC9784857, “In Vitro Characterization of a Nuclear Receptor-like Domain of the Xylanase Regulator 1 from Trichoderma reesei” (Journal of Fungi, 2022).
Positions count from the first letter of the chain named.

What was measured:
[1] = target: T1, Xyr1 (Xylanase regulator 1) (Trichoderma reesei, UniProt G0RLE8); assay: far-UV circular dichroism, ligand-induced conformational change; type: binding; conditions: 250 nM protein, buffer A (50 mM Tris, 200 mM NaCl, 50 mM NaH2PO4, 10% glycerol) pH 7.5, 22 °C; sugar 40-1000 nM; no added DNA; proposed allosteric
T1 construct: full coding region, codon-optimised synthetic gene, C-terminal His6 tag (not reported cut), pET28a (pTS1), E. coli BL21(DE3)pLysS; 105 kDa; monomer and homodimer
From the text: far-UV circular dichroism, ligand-induced conformational change on Xyr1 (Xylanase regulator 1) | All three carbohydrates cause a change in the Xyr1 secondary structure

[2] = target: T1, Xyr1 (Xylanase regulator 1); assay: as above; type: binding; conditions: 250 nM protein, buffer A (50 mM Tris, 200 mM NaCl, 50 mM NaH2PO4, 10% glycerol) pH 7.5, 22 °C, sugar 40-1000 nM, no added DNA, proposed allosteric
[3] = target: Xylanase regulator 1 with the A824V mutation (Xyr1_(A824V)) (Trichoderma reesei) (UniProt G0RLE8); assay: native gel or EMSA; blue native PAGE (BN-PAGE), 200 nM of each protein, non-denaturing conditions; second dimension SDS-PAGE, identity confirmed by Western blot; also run with target DNA or carbohydrates as controls (Figure S1)
[4] = target: T2, Xyr1 (Xylanase regulator 1) (Trichoderma reesei, UniProt G0RLE8 1-920); assay: CD spectroscopy titration (222 nm); no carbohydrate; Engel fit, n = 2; Buffer A: 50 mM Tris, 200 mM NaCl, 50 mM NaH2PO4, 10% glycerol, pH 7.5, 22 °C; CD: 250 nM protein, DNA 0-900 nM; EMSA: 15 ng probe, 10 min, 0.2 µg/µL p(dIdC) plus unspecific duplex CKT067/CKT068; conditions: protein: recombinant; tags: C-terminal His6; chain copies: 2; blunt
T2 sequence: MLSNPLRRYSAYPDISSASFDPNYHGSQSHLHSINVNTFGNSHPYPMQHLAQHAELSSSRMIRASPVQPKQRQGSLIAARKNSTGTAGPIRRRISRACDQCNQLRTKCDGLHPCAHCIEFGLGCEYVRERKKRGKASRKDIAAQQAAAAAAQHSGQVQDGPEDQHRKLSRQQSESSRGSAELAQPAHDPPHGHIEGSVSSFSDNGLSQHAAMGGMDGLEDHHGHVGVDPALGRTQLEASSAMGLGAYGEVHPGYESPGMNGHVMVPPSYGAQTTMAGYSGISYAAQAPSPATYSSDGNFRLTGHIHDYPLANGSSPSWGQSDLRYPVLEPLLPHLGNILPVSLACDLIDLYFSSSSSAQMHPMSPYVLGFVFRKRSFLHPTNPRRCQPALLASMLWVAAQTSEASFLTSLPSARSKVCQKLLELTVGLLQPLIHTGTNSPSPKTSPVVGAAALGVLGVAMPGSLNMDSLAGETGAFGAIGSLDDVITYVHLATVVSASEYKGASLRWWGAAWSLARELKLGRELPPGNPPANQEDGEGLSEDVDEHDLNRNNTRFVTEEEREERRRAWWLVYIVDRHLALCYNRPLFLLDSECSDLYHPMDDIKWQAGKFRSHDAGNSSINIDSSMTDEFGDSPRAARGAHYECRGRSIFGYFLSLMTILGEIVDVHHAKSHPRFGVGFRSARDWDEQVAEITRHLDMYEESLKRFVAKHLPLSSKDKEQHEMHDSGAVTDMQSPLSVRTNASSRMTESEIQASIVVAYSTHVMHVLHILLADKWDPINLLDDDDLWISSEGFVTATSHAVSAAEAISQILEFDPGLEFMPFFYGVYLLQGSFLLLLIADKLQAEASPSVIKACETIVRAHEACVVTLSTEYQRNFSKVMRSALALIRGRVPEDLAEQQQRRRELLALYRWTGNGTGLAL

Xyr1A824V = target: T3, Xyr1A824V (Trichoderma reesei, UniProt G0RLE8 1-920, A804V); assay: as above; conditions: protein: recombinant; tags: C-terminal His6; chain copies: 2; blunt
T3 sequence: T2 sequence with A804V

[5] = target: the molecule itself; assay: native gel or EMSA; blue native PAGE (BN-PAGE), 200 nM of each protein, non-denaturing conditions; second dimension SDS-PAGE, identity confirmed by Western blot; also run with target DNA or carbohydrates as controls (Figure S1)

Molecule: O=P(O)(O)OC[C@H]1OC(O)[C@H](O)[C@@H](O)[C@@H]1O (stereo partly drawn) [D-glucose-6-phosphate]
- loss of α-helix structures [1]: 21%

Molecule: OC1OC[C@@H](O)[C@H](O)[C@H]1O (stereo partly drawn) [D-xylose]
- loss of α-helix structures (up to) [2]: 31%

Molecule: OC[C@H]1O[C@@H](O[C@H]2C(O)O[C@H](CO)[C@@H](O)[C@@H]2O)[C@H](O)[C@@H](O)[C@@H]1O (stereo partly shown) [sophorose]
- loss of α-helix structures (up to) ([2]; spectra not shown, stated highly similar to D-xylose): 31%

Molecule: Xylanase regulator 1 with the A824V mutation (Xyr1_(A824V)) (from UniProt G0RLE8 1-920)
- stoichiometry N [3]: 2

B1: xyn1 URR fragment (-430 to -396), Pxyn1f/Pxyn1r (dsDNA)
DNA 1: TTGGCAGGCTAAATGCGACATCTTAGCCGGATGCA
DNA 2: TGCATCCGGCTAAGATGTCGCATTTAGCCTGCCAA
- Kd [4]: 128 nM
- Kd (Xyr1A824V): 523 nM

B2: Xylanase regulator 1 (Xyr1), wild type (natural protein)
chain: T2 sequence
- stoichiometry N [5]: 2
